T1: EAAT4, full-length glutamate transporter (rat, UniProt O35921 1-561)
T1 sequence (looked up): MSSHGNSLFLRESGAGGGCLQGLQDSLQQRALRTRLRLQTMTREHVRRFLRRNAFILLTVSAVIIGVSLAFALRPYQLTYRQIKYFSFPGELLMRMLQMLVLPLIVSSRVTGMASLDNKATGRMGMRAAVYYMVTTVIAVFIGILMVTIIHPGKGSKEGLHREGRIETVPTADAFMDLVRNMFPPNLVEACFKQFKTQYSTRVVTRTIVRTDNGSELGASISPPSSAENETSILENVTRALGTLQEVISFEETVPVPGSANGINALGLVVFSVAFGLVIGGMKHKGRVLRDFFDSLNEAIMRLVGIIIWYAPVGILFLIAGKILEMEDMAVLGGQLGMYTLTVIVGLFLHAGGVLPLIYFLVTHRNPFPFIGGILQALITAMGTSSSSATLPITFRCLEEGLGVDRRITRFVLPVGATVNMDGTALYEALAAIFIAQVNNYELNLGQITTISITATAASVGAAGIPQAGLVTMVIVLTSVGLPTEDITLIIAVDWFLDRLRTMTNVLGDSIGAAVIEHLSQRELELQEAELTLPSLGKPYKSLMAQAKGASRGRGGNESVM

B1: GTRAP4-48 (glutamate transporter 4 associated protein), full-length (other)
chain: MSIRLPHSIDRSASKKQSHLSSPIASWLSSLSSLGDSTPERTSPSHHRQPSDTSETTAGLVQRCVIIQKDQHGFGFTVSGDRIVLVQSVRPGGAAMKAGVKEGDRIIKVNGTMVTNSSHLEVVKLIKSGAYAALTLLGSSPPSVGVSGLQQNPSVAGVLRVNPIIPPPPPPPPLPPPQHITGPKPLQDPEVQKHATQILWNMLRQEEEELQDILPPCGETSQRTCEGRLSVDSQEADSGLDSGTERFPSISESLMNRNSVLSDPGLDSPQTSPVILARVAQHHRRQGSDAALLPLNHQGIDQSPKPLIIGPEEDYDPGYFNNESDIIFQDLEKLKSHPAYLVVFLRYILSQADPGPLLFYLCSEVYQQTNPKDSRSLGKDIWNIFLEKNAPLRVKIPEMLQAEIDLRLRNNEDPRNVLCEAQEAVMLEIQEQINDYRSKRTLGLGSLYGENDLLGLDGDPLRERQMAEKQLAALGDILSKYEEDRSAPMDFAVNTFMSHAGIRLRESRSSCTAEKTQSAPDKDKWLPFFPKTKKQSSNSKKEKDALEDKKRNPILRYIGKPKSSSQSIKPGNVRNIIQHFENSHQYDVPEPGTQRLSTGSFPEDLLESDSSRSEIRLGRSGSLKGREEMKRSRKAENVPRPRSDVDMDAAAEAARLHQSASSSASSLSTRSLENPTPPFTPKMGRRSIESPNLGFCTDVILPHLLEDDLGQLSDLEPEPEVQNWQHTVGKDVVANLTQREIDRQEVINELFVTEASHLRTLRVLDLIFYQRMRKENLMPREELARLFPNLPELIEIHNSWCEAMKKLREEGPIIRDISDPMLARFDGPAREELQQVAAQFCSYQSVALELIRTKQRKESRFQLFMQEAESHPQCRRLQLRDLIVSEMQRLTKYPLLLENIIKHTEGGTSEHEKLCRARDQCREILKFVNEAVKQTENRHRLEGYQKRLDATALERASNPLAAEFKSLDLTTRKMIHEGPLTWRISKDKTLDLQVLLLEDLVVLLQRQEERLLLKCHSKTAVGSSDSKQTFSPVLKLNAVLIRSVATDKRAFFIICTSELGPPQIYELVALTSSDKNIWMELLEEAVQNATKHPGAAPIPIHPSPPGSQEPAYQGSTSSRVEINDSEVYHTEKEPKKLPEGPGPEQRVQDKQLIAQGEPVQEEDEEELRTLPRAPPSLDGENRGIRTRDPVLLALTGPLLMEGLADAALEDVENLRHLILWSLLPGHTVKTQAAGEPEDDLTPTPSVVSITSHPWDPGSPGQAPTISDSTRLARPEGSQPEGEDVAVSSLAHLPPRTRSSGVWDSPELDRNPAAEAASTEPAASYKVVRKVSLLPGGGVGAAKVAGSNAIPDSGQSESELSEVEGGAQATGNCFYVSMPAGPLDSSTEPTGTPPSPSQCHSLPAWPTEPQPYRGVRGGQCSSLVRRDVDVIFHTIEQLTIKLHRLKDMELAHRELLKSLGGESSGGTTPVGSFHTEAARWTDYSLSPPAKEALASDSQNGQEQGSCPEEGSDIALEDSATDTAVSPGP
notes: also called GTRAP48

What was measured:
[1] = molecular target: T2, GTRAP4-41 (glutamate transporter 4 associated protein), full-length (rat, UniProt Q9QWN8 2-2388); assay: co-immunoprecipitation from solubilized rat brain
T2 construct: Used for native GTRAP4-41 of rat brain and for full-length GTRAP4-41 expressed where no tag is stated (transfected HEK cells, HSV amplicon); also called GTRAP41
Protocol: (§1) Immunoprecipitation from cerebellum lysate. Sprague-Dawley (SD) rat cerebellum was dissected, washed with 50 mM Tris-HCl (pH 7.5), 2 mM EDTA and 0.5 mM DTT, and homogenized on ice in buffer containing 20 mM Tris-HCl (pH 7.5), 10% sucrose, 1 mM EDTA, 0.1 mM PMSF, 0.3 mM aprotinin, 1 mM benamidine, 10 mg/ml leupeptine and 10 mg/ml pepstatine. Protein concentration was measured and adjusted to 2–3 mg/ml, and the homogenate was mixed in a 1:1 ratio with the solubilization buffer (homogenization buffer plus 2% Triton X-100). After 2 h, the lysate was spun at 10,000 g for 10 min. For each immunoprecipitation, […] of the Triton-lysate was incubated overnight at 4° C. with 5 μg of the anti-amino-terminal EAAT4 antibody. Immune complexes were precipitated with protein A Sepharose (Pharmacia), washed three times with 10 mM Tris-HCl (pH 7.5) and 5 mM EDTA, eluted with 3×SDS loading buffer, and processed for western blot analysis. The filters were probed with affinity purified rabbit antibodies against GTRAP4-41 and GTRAP4-48.
(§2) The GTRAP4-41 and GTRAP4-48 interaction with EAAT4 was then studied in vivo using solubilized brain preparations. GTRAP4-41 and GTRAP4-48 are co-immunoprecipitated with EAAT4 from brain by antibodies directed at the amino-terminus of EAAT4 but not by antibodies directed at the carboxy-terminus. However, since the site of interaction is within the carboxy-terminus of EAAT4, it is likely that the carboxy-terminal antibodies disrupt the protein-protein interaction. […] GTRAP4-48 is also not co-immunoprecipitated from brain with antibodies directed at GTRAP4-41.

[2] = molecular target: B1; assay: co-immunoprecipitation from solubilized rat brain
Protocol: as §1, §2

[3] = molecular target: T3, myc-tagged full-length GTRAP4-41 (rat, UniProt Q9QWN8 2-2388); assay: in vitro binding assay, bead-linked GST-EAAT4 with solubilized HEK 293T extract
T3 construct: tested from solubilized cell extract; also called myc-tagged GTRAP4-41; not shown: myc tag of the myc-tagged pRK5 vector
Protocol: (§3) GTRAP4-41 and 4-48 Immunoprecipitation with Fusion Proteins. Full-length EAAT4 was subcloned into the EcoR I site of the GST-fusion vector pGEX-6P-1 (Pharmacia). Synthesis of recombinant proteins in BL21 cells (Novagen) was induced by 0.1 mM isopropyl b-D-thiogalactoside for 2 hrs at 30° C. and prepared as a crude bacterial lysate by mild sonication in ice-cold 1 C PBS and solubilization in 1% Triton X-100. Cell debris was removed by centrifugation at 7,000 g and the cleared bacterial lysate applied to glutathione-Sepharose-4B (Pharmacia). […] The cellular lysate was incubated with GST or GST-EAAT4 immobilized on glutathione-Sepharose-4B, and washed to remove non-specifically bound proteins. Specifically bound proteins were eluted with 3×SDS loading buffer and analyzed by immunoblotting using an anti-c-myc antibody. Bands were visualized by HRP-conjugated secondary antibodies and ECL chemiluminescence (Amersham).
(§4) The biochemical interaction between GTRAP4-41 or GTRAP4-48 and EAAT4 was confirmed using an in vitro binding assay. […] The solubilized cell extracts were then mixed with bead-linked GST-EAAT4 or GST alone and the bound proteins were eluted. GTRAP4-41 and GTRAP4-48 were specifically retained by the GST-EAAT4 fusion protein, but not by GST alone.

[4] = molecular target: T4, myc-tagged full-length GTRAP4-48 (rat, UniProt Q9ES67 1-1527); assay: as above
T4 construct: tested from solubilized cell extract; also called myc-tagged GTRAP4-48; not shown: myc tag of the myc-tagged pRK5 vector
Protocol: as §3, §4

[5] = molecular target: T1, EAAT4, full-length glutamate transporter; assay: cell-based or functional assay

T2 sequence (Q9QWN8 other isoform, or with tags, fused parts or gaps limits assumed): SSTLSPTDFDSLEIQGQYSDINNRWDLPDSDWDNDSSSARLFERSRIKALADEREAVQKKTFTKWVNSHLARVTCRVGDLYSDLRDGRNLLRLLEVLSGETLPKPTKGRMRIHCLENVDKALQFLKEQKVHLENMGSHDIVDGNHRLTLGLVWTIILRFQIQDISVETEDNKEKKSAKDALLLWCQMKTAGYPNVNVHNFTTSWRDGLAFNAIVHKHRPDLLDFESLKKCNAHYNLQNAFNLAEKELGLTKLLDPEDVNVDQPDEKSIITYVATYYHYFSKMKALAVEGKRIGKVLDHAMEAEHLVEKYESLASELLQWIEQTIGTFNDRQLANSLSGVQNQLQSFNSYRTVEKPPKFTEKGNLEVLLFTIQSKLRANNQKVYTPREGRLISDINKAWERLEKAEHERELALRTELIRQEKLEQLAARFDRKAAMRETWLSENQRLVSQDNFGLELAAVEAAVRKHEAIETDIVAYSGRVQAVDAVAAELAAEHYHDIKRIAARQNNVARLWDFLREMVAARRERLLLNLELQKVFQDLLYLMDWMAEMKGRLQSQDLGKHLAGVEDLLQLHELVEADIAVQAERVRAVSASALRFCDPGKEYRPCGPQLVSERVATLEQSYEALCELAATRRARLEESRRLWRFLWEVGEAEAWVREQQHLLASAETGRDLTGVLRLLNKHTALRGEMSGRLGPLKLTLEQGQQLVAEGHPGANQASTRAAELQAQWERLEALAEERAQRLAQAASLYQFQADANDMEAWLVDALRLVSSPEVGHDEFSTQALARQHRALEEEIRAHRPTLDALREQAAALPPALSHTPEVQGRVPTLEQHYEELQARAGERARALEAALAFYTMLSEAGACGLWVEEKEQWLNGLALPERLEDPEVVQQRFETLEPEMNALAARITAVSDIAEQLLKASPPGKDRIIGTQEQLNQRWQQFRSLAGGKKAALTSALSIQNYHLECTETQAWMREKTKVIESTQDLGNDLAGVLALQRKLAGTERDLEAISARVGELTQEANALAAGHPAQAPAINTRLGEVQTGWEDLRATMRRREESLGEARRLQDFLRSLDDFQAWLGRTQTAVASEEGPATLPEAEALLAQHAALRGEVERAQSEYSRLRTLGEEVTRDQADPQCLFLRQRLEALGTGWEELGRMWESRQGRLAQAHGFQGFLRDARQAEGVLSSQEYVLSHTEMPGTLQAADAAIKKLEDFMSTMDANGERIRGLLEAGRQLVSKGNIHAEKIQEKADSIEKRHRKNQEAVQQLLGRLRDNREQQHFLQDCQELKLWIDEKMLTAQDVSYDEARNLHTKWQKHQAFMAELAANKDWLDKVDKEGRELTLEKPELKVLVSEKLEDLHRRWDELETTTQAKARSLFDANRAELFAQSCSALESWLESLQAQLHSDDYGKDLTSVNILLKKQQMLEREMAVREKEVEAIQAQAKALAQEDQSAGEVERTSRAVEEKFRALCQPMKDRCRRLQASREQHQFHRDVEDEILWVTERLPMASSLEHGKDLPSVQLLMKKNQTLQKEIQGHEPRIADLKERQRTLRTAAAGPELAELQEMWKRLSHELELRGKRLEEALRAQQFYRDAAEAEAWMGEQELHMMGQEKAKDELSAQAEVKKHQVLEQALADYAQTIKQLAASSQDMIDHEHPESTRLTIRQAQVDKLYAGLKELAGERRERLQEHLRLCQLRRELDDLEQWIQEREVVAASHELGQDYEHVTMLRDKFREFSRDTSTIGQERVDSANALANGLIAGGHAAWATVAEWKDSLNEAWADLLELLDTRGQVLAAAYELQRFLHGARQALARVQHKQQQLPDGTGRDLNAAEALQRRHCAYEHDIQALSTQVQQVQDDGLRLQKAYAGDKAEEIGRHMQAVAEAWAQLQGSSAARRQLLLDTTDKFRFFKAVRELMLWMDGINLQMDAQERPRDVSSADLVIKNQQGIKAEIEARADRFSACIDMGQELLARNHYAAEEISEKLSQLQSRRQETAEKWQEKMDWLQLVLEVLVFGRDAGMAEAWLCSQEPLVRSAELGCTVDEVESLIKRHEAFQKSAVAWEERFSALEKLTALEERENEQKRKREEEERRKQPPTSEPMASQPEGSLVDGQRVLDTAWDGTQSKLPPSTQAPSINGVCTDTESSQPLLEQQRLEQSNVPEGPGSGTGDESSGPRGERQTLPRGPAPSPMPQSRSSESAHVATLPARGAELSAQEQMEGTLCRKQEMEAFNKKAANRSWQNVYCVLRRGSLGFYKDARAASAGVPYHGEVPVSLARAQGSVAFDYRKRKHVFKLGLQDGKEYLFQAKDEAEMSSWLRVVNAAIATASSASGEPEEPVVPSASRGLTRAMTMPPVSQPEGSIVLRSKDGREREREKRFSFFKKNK
T3 sequence (Q9QWN8 other isoform, or with tags, fused parts or gaps): as the sequence (Q9QWN8 other isoform, or with tags, fused parts or gaps limits assumed) above

binding result [1]	binding result [2]	binding result [3]	binding result [4]	Na+-dependent glutamate transport in HEK-rEAAT4 cells [5]	Binder
no binding	no binding	–	–	–	GLAST glutamate transporter (other, rat, UniProt P24942 1-543, looked up, whole, on cells; Native protein in solubilized rat brain) MTKSNGEEPRMGSRMERFQQGVRKRTLLAKKKVQNITKEDVKSYLFRNAFVLLTVSAVIVGTILGFALRPYKMSYREVKYFSFPGELLMRMLQMLVLPLIISSLVTGMAALDSKASGKMGMRAVVYYMTTTIIAVVIGIIIVIIIHPGKGTKENMYREGKIVQVTAADAFLDLIRNMFPPNLVEACFKQFKTSYEKRSFKVPIQANETLLGAVINNVSEAMETLTRIREEMVPVPGSVNGVNALGLVVFSMCFGFVIGNMKEQGQALREFFDSLNEAIMRLVAVIMWYAPLGILFLIAGKILEMEDMGVIGGQLAMYTVTVIVGLLIHAVIVLPLLYFLVTRKNPWVFIGGLLQALITALGTSSSSATLPITFKCLEENNGVDKRITRFVLPVGATINMDGTALYEALAAIFIAQVNNFDLNFGQIITISITATAASIGAAGIPQAGLVTMVIVLTSVGLPTDDITLIIAVDWFLDRLRTTTNVLGDSLGAGIVEHLSRHELKNRDVEMGNSVIEENEMKKPYQLIAQDNEPEKPVADSETKM
no binding	no binding	–	–	–	EAAC1, full-length glutamate transporter (other, rat, UniProt P51907 1-523, looked up, whole, on cells; Used for native EAAC1 of rat brain and for EAAC1 expressed in HEK293, COS-7 and C6 glioma cells) MGKPTSSGCDWRRFLRNHWLLLSTVAAVVLGIVVGVLVRGHSELSNLDKFYFAFPGEILMRMLKLVILPLIISSMITGVAALDSNVSGKIGLRAVVYYFSTTVIAVILGIVLVVSIKPGVTQKVNEINRTGKTPEVSTVDAMLDLIRNMFPENLVQACFQQYKTKREEVKPASDPGGNQTEVSVTTAMTTMSENKTKEYKIVGLYSDGINVLGLIIFCLVFGLVIGKMGEKGQILVDFFNALSDATMKIVQIIMCYMPIGILFLIAGKIIEVEDWEIFRKLGLYMATVLSGLAIHSLVVLPLIYFIVVRKNPFRFALGMAQALLTALMISSSSATLPVTFRCAEEKNHVDKRITRFVLPVGATINMDGTALYEAVAAVFIAQLNGMDLSIGQIITISITATAASIGAAGVPQAGLVTMVIVLSAVGLPAEDVTLIIAVDWLLDRFRTMVNVLGDAFGTGIVEKLSKKELEQVDVSSEVNIVNPFALEPTILDNEDSDTKKSYVNGGFSVDKSDTISFTQTSQF
–	–	binds	binds	–	GST-EAAT4 fusion protein (full-length EAAT4 in pGEX-6P-1) (other, UniProt O35921 1-561, looked up, mature; Made in BL21 cells, immobilized on glutathione-Sepharose-4B; not shown: glutathione S-transferase of vector pGEX-6P-1 (Pharmacia)) MSSHGNSLFLRESGAGGGCLQGLQDSLQQRALRTRLRLQTMTREHVRRFLRRNAFILLTVSAVIIGVSLAFALRPYQLTYRQIKYFSFPGELLMRMLQMLVLPLIVSSRVTGMASLDNKATGRMGMRAAVYYMVTTVIAVFIGILMVTIIHPGKGSKEGLHREGRIETVPTADAFMDLVRNMFPPNLVEACFKQFKTQYSTRVVTRTIVRTDNGSELGASISPPSSAENETSILENVTRALGTLQEVISFEETVPVPGSANGINALGLVVFSVAFGLVIGGMKHKGRVLRDFFDSLNEAIMRLVGIIIWYAPVGILFLIAGKILEMEDMAVLGGQLGMYTLTVIVGLFLHAGGVLPLIYFLVTHRNPFPFIGGILQALITAMGTSSSSATLPITFRCLEEGLGVDRRITRFVLPVGATVNMDGTALYEALAAIFIAQVNNYELNLGQITTISITATAASVGAAGIPQAGLVTMVIVLTSVGLPTEDITLIIAVDWFLDRLRTMTNVLGDSIGAAVIEHLSQRELELQEAELTLPSLGKPYKSLMAQAKGASRGRGGNESVM
no binding	no binding	–	–	–	GLT-1 glutamate transporter (other, rat, UniProt P31596 1-573, looked up, whole, on cells; Native protein in solubilized rat brain) MASTEGANNMPKQVEVRMHDSHLSSEEPKHRNLGMRMCDKLGKNLLLSLTVFGVILGAVCGGLLRLAAPIHPDVVMLIAFPGDILMRMLKMLILPLIISSLITGLSGLDAKASGRLGTRAMVYYMSTTIIAAVLGVILVLAIHPGNPKLKKQLGPGKKNDEVSSLDAFLDLIRNLFPENLVQACFQQIQTVTKKVLVAPPSEEANTTKAVISLLNETMNEAPEETKIVIKKGLEFKDGMNVLGLIGFFIAFGIAMGKMGEQAKLMVEFFNILNEIVMKLVIMIMWYSPLGIACLICGKIIAIKDLEVVARQLGMYMITVIVGLIIHGGIFLPLIYFVVTRKNPFSFFAGIFQAWITALGTASSAGTLPVTFRCLEDNLGIDKRVTRFVLPVGATINMDGTALYEAVAAIFIAQMNGVILDGGQIVTVSLTATLASIGAASIPSAGLVTMLLILTAVGLPTEDISLLVAVDWLLDRMRTSVNVVGDSFGAGIVYHLSKSELDTIDSQHRMHEDIEMTKTQSVYDDTKNHRESNSNQCVYAAHNSVVIDECKVTLAANGKSADCSVEEEPWKREK
no binding	–	–	–	4 fold	B1
